Source: paper PMC2756588

T1: Bzz1-2, P38822
T1 sequence (P38822 568-633, looked up): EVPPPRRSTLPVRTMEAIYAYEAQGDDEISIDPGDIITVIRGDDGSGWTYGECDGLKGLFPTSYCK

T2: Cdc25, P04821
T2 sequence (P04821 50-136, looked up): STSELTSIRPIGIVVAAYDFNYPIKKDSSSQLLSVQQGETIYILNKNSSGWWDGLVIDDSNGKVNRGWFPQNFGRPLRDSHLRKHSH

T3: Lsb1, P53281
T3 sequence (P53281 45-122, looked up): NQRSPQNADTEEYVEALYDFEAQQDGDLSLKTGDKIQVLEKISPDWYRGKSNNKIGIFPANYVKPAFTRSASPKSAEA

T4: Myo5, Q04439
T4 sequence (Q04439 1072-1160, looked up): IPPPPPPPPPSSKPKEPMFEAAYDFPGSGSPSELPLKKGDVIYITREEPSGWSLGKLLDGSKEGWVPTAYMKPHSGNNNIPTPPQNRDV

T5: Abp1, P15891
T5 sequence (P15891 535-592, looked up): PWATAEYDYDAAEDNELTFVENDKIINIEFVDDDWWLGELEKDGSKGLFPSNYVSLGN

T6: Bud14, P27637
T6 sequence (P27637 247-328, looked up): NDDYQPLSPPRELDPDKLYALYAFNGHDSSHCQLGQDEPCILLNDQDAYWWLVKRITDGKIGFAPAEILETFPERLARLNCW

T7: Bzz1-1, P38822
T7 sequence (P38822 478-572, looked up): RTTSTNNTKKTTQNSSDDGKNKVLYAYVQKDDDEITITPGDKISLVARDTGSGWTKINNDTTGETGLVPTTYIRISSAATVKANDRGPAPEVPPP

T8: Nbp2, Q12163
T8 sequence (Q12163 103-180, looked up): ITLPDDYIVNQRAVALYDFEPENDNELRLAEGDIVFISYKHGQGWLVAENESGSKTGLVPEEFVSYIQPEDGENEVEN

T9: Lsb4, P32793
T9 sequence (P32793 402-468, looked up): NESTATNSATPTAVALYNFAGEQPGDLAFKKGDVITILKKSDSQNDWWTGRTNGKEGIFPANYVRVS

T10: Cyk3, Q07533
T10 sequence (Q07533 1-83, looked up): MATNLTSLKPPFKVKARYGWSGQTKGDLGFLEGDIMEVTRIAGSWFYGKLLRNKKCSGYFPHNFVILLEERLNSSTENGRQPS

T11: Hse1, P38753
T11 sequence (P38753 208-285, looked up): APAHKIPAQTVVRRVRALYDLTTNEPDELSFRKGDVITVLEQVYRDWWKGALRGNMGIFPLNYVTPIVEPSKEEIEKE

T12: Sla1-3, P32790
T12 sequence (P32790 344-424, looked up): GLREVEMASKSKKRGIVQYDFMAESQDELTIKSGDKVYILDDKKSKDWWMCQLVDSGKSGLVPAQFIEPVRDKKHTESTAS

T13: Lsb3, P43603
T13 sequence (P43603 385-451, looked up): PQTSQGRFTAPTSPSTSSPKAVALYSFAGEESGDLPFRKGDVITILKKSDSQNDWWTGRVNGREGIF

T14: Fus1, P11710
T14 sequence (P11710 432-512, looked up): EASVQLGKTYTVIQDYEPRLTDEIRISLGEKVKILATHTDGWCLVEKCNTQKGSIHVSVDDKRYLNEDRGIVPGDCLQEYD

T15: Bbc1, P47068
T15 sequence (P47068 1-78, looked up): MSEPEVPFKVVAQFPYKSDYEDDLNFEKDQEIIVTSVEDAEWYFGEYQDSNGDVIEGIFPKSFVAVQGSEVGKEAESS

T16: Hof1, Q05080
T16 sequence (Q05080 590-669, looked up): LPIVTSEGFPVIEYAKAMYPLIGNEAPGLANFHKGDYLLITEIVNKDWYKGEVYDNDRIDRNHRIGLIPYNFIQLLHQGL

T17: Boi2, P39969
T17 sequence (P39969 32-116, looked up): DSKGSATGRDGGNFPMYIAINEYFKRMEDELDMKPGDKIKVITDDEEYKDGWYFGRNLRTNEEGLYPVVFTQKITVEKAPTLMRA

T18: Pin3, Q06449
T18 sequence (Q06449 53-122, looked up): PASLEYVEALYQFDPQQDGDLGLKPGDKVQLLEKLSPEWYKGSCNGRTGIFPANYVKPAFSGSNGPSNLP

T19: Pex13, P80667
T19 sequence (P80667 295-386, looked up): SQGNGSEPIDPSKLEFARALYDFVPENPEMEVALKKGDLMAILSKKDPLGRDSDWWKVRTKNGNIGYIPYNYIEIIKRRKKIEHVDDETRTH

T20: Sla1-2, P32790
T20 sequence (P32790 60-140, looked up): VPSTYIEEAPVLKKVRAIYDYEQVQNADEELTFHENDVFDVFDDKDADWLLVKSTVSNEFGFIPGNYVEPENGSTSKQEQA

T21: Boi1, P38041
T21 sequence (P38041 1-86, looked up): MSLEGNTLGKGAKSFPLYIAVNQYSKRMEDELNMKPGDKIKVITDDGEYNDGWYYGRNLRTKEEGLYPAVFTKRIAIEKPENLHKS


What was measured:
Assay in all cases: SPOT array
Bzz1-2, P38822 = molecular target: T1, Bzz1-2, P38822; details: median of control spots 4538
Cdc25, P04821 = molecular target: T2, Cdc25, P04821; details: median of control spots 969
GST = details: median of control spots 978
Lsb1, P53281 = molecular target: T3, Lsb1, P53281; details: median of control spots 388
Bem1-2, P29366 = details: median of control spots 4347
Sequence of Bem1-2, P29366 (P29366 139-227): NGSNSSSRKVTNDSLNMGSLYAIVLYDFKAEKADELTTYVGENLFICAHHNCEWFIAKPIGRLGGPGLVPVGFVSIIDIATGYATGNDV

Bem1-1, P29366 = details: median of control spots 4282
Sequence of Bem1-1, P29366 (P29366 55-141): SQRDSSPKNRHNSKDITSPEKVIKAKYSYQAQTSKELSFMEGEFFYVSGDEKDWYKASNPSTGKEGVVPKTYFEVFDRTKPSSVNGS

Myo3, P36006 = details: median of control spots 468
Myo5, Q04439 = molecular target: T4, Myo5, Q04439; details: median of control spots 471
Abp1, P15891 = molecular target: T5, Abp1, P15891; details: median of control spots 935
Bud14, P27637 = molecular target: T6, Bud14, P27637; details: median of control spots 956
Bzz1-1, P38822 = molecular target: T7, Bzz1-1, P38822; details: median of control spots 4446
Nbp2, Q12163 = molecular target: T8, Nbp2, Q12163; details: median of control spots 357
Lsb4, P32793 = molecular target: T9, Lsb4, P32793; details: median of control spots 397
Cyk3, Q07533 = molecular target: T10, Cyk3, Q07533; details: median of control spots 1451
Hse1, P38753 = molecular target: T11, Hse1, P38753; details: median of control spots 1727
Sla1-3, P32790 = molecular target: T12, Sla1-3, P32790; details: median of control spots 5475
Lsb3, P43603 = molecular target: T13, Lsb3, P43603; details: median of control spots 406
Fus1, P11710 = molecular target: T14, Fus1, P11710; details: median of control spots 1200
Rvs167, P39743 = details: median of control spots 2707
Sequence of Rvs167, P39743 (P39743 419-482): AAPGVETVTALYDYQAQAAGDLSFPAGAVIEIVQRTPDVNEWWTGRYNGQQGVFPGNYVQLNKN

Bbc1, P47068 = molecular target: T15, Bbc1, P47068; details: median of control spots 796
Sho1, P40073 = details: median of control spots 1148
Sequence of Sho1, P40073 (P40073 287-367): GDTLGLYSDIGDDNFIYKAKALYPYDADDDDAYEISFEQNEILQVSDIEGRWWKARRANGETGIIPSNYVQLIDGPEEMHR

Hof1, Q05080 = molecular target: T16, Hof1, Q05080; details: median of control spots 4086
Boi2, P39969 = molecular target: T17, Boi2, P39969; details: median of control spots 1161
Pin3, Q06449 = molecular target: T18, Pin3, Q06449; details: median of control spots 2171
Pex13, P80667 = molecular target: T19, Pex13, P80667; details: median of control spots 1341
Sla1-2, P32790 = molecular target: T20, Sla1-2, P32790; details: median of control spots 712
Boi1, P38041 = molecular target: T21, Boi1, P38041; details: median of control spots 1162

SPOT intensity (Bzz1-2, P38822) | SPOT intensity (Cdc25, P04821) | SPOT intensity (GST) | SPOT intensity (Lsb1, P53281) | SPOT intensity (Bem1-2, P29366) | SPOT intensity (Bem1-1, P29366) | SPOT intensity (Myo3, P36006) | SPOT intensity (Myo5, Q04439) | SPOT intensity (Abp1, P15891) | SPOT intensity (Bud14, P27637) | SPOT intensity (Bzz1-1, P38822) | SPOT intensity (Nbp2, Q12163) | SPOT intensity (Lsb4, P32793) | SPOT intensity (Cyk3, Q07533) | SPOT intensity (Hse1, P38753) | SPOT intensity (Sla1-3, P32790) | SPOT intensity (Lsb3, P43603) | SPOT intensity (Fus1, P11710) | SPOT intensity (Rvs167, P39743) | SPOT intensity (Bbc1, P47068) | Binder | other results
35 | 148 | 5 | 0 | 7 | 0 | 7 | 1 | 95 | 10 | 1 | 0 | 4 | 3 | 79 | 158 | 2 | 25 | 0 | 165 | RRASLFPRDPKRLRP | SPOT intensity (Sho1, P40073): 67; SPOT intensity (Hof1, Q05080): 21; SPOT intensity (Boi2, P39969): 8; SPOT intensity (Pin3, Q06449): 11; SPOT intensity (Pex13, P80667): 2; SPOT intensity (Sla1-2, P32790): 7; SPOT intensity (Boi1, P38041): 7
3 | 2 | 3 | 1120 | 0 | 0 | 0 | 0 | 0 | 0 | 0 | 0 | 0 | 0 | 0 | 0 | 0 | 0 | 0 | 0 | VYTRTAFQIPGDDKI | SPOT intensity (Sho1, P40073): 0; SPOT intensity (Hof1, Q05080): 0; SPOT intensity (Boi2, P39969): 0; SPOT intensity (Pin3, Q06449): 29; SPOT intensity (Pex13, P80667): 0; SPOT intensity (Sla1-2, P32790): 1; SPOT intensity (Boi1, P38041): 0
0 | 0 | 0 | 67 | 0 | 0 | 54 | 48 | 85 | 1 | 0 | 5 | 50 | 0 | 2 | 0 | 8 | 0 | 1 | 1 | LFMKGTPEFPKSGFS | SPOT intensity (Sho1, P40073): 17; SPOT intensity (Hof1, Q05080): 0; SPOT intensity (Boi2, P39969): 0; SPOT intensity (Pin3, Q06449): 40; SPOT intensity (Pex13, P80667): 211; SPOT intensity (Sla1-2, P32790): 5; SPOT intensity (Boi1, P38041): 0

Second part, the binder before the results:

Binder | SPOT intensity (Bzz1-2, P38822) | SPOT intensity (Cdc25, P04821) | SPOT intensity (GST) | SPOT intensity (Lsb1, P53281) | SPOT intensity (Bem1-2, P29366) | SPOT intensity (Bem1-1, P29366) | SPOT intensity (Myo3, P36006) | SPOT intensity (Myo5, Q04439) | SPOT intensity (Abp1, P15891) | SPOT intensity (Bud14, P27637) | SPOT intensity (Bzz1-1, P38822) | SPOT intensity (Nbp2, Q12163) | SPOT intensity (Lsb4, P32793) | SPOT intensity (Cyk3, Q07533) | SPOT intensity (Hse1, P38753) | SPOT intensity (Sla1-3, P32790) | SPOT intensity (Lsb3, P43603) | SPOT intensity (Fus1, P11710) | SPOT intensity (Rvs167, P39743) | SPOT intensity (Bbc1, P47068) | other results
GRSRLFPHSPLGRSS | 9 | 34 | 0 | 0 | 5 | 0 | 0 | 0 | 34 | 25 | 0 | 4 | 0 | 2 | 9 | 8 | 0 | 16 | 0 | 12 | SPOT intensity (Sho1, P40073): 21; SPOT intensity (Hof1, Q05080): 14; SPOT intensity (Boi2, P39969): 1; SPOT intensity (Pin3, Q06449): 1; SPOT intensity (Pex13, P80667): 4; SPOT intensity (Sla1-2, P32790): 1; SPOT intensity (Boi1, P38041): 4
YHSRRHPLALGFKYV | 0 | 6 | 0 | 0 | 10 | 0 | 1 | 0 | 0 | 4 | 0 | 0 | 0 | 3 | 0 | 9 | 0 | 5 | 0 | 2 | SPOT intensity (Sho1, P40073): 7; SPOT intensity (Hof1, Q05080): 0; SPOT intensity (Boi2, P39969): 0; SPOT intensity (Pin3, Q06449): 13; SPOT intensity (Pex13, P80667): 4; SPOT intensity (Sla1-2, P32790): 0; SPOT intensity (Boi1, P38041): 0
HKVLRPFLLRRLKKD | 0 | 67 | 0 | 0 | 1 | 0 | 0 | 0 | 34 | 21 | 1 | 13 | 0 | 3 | 11 | 30 | 0 | 52 | 0 | 333 | SPOT intensity (Sho1, P40073): 26; SPOT intensity (Hof1, Q05080): 0; SPOT intensity (Boi2, P39969): 0; SPOT intensity (Pin3, Q06449): 4; SPOT intensity (Pex13, P80667): 0; SPOT intensity (Sla1-2, P32790): 0; SPOT intensity (Boi1, P38041): 1
